Here are results for one molecule from publication PMC9352726 (Nature Communications, 2022).

Experiment [1] concerns the target T1, purified recombinant YspE2, full length (Yersinia pestis, UniProt A0AAP0VE47 1-605).
T1 sequence: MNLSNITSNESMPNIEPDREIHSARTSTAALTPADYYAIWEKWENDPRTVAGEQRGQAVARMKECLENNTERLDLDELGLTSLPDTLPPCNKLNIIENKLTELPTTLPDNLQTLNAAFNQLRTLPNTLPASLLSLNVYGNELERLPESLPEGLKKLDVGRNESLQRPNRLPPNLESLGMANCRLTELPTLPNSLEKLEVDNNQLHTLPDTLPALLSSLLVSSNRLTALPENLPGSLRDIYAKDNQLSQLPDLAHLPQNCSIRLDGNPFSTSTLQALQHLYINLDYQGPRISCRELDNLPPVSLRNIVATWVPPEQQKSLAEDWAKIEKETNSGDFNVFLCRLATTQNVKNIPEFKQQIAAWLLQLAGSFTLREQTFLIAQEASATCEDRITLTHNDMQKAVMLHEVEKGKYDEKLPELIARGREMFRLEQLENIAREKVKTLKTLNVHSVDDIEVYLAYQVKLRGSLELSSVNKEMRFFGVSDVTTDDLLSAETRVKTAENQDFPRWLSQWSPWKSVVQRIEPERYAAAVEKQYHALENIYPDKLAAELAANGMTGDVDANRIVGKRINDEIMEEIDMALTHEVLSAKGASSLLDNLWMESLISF
Nature of the experiment: SPR; Biacore T200; […] (0–20 μM) […] (20 mM HEPES pH 7.4, 150 mM NaCl, 3.4 mM EDTA, 0.005% P20); 25 °C. As to conditions: both partners purified.

Experiment [2] addresses T2, purified recombinant YspE1, full length (Yersinia pestis, UniProt A0A3N4BII9 1-626).
T2 sequence: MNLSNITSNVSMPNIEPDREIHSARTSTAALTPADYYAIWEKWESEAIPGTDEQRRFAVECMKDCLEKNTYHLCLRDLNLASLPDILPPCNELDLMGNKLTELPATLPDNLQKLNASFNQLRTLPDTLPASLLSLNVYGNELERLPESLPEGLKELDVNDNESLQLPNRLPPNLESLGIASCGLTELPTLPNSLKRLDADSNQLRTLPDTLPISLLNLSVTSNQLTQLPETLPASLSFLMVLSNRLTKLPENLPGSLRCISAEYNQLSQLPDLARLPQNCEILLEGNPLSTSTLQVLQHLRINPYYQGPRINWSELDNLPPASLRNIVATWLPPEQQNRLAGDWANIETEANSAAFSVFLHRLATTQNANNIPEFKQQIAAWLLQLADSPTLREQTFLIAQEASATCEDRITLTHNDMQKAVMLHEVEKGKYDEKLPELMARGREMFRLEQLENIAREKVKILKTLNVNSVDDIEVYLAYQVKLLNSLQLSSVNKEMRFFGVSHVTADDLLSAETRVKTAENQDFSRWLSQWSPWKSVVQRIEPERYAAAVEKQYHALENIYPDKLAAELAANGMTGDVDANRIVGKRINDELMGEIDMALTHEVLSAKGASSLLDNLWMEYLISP
The description is as above. The note with it: both partners purified.

B1: purified recombinant human guanylate-binding protein 1 (hGBP1) (natural protein, UniProt P32455 1-592, looked up)
chain: MASEIHMTGPMCLIENTNGRLMANPEALKILSAITQPMVVVAIVGLYRTGKSYLMNKLAGKKKGFSLGSTVQSHTKGIWMWCVPHPKKPGHILVLLDTEGLGDVEKGDNQNDSWIFALAVLLSSTFVYNSIGTINQQAMDQLYYVTELTHRIRSKSSPDENENEVEDSADFVSFFPDFVWTLRDFSLDLEADGQPLTPDEYLTYSLKLKKGTSQKDETFNLPRLCIRKFFPKKKCFVFDRPVHRRKLAQLEKLQDEELDPEFVQQVADFCSYIFSNSKTKTLSGGIQVNGPRLESLVLTYVNAISSGDLPCMENAVLALAQIENSAAVQKAIAHYEQQMGQKVQLPTETLQELLDLHRDSEREAIEVFIRSSFKDVDHLFQKELAAQLEKKRDDFCKQNQEASSDRCSALLQVIFSPLEEEVKAGIYSKPGGYRLFVQKLQDLKKKYYEEPRKGIQAEEILQTYLKSKESMTDAILQTDQTLTEKEKEIEVERVKAESAQASAKMLQEMQRKNEQMMEQKERSYQEHLKQLTEKMENDRVQLLKEQERTLALKLQEQEQLLKEGFQKESRIMKNEIQDLQTKMRRRKACTIS
notes: also called pSUMO-hGBP1
Regarding B1, the Kd in experiment [1] was 1500 nM; in experiment [2], 370 nM.
